Drawing on PMC5660122 (2017), this text covers Kd and koff for 2 molecules.

What all share (test): SPR
Experiment [1] has as its target 2V-BB11-2V (Squalus acanthias).
The target in experiment [2] is 2V-BB10-2V (Squalus acanthias).
Experiment [3] deals with 2V-BA11-2V (Squalus acanthias).
The target in experiment [4] is 2V-E06-2V (Squalus acanthias | dogfish).
In experiment [5] the target is humanized E06 BB11.
Experiment [6] has as its target humanized E06 v2.4-2G.
For experiment [7], the target named is humanized E06 BA11.

B1: cynomolgus serum albumin (natural protein)
chain: DTHKSEVAHRFKDLGEEHFKGLVLVAFSQYLQQCPFEEHVKLVNEVTEFAKTCVADESAENCDKSLHTLFGDKLCTVATLRETYGEMADCCAKQEPERNECFLQHKDDNPNLPPLVRPEVDVMCTAFHDNEATFLKKYLYEVARRHPYFYAPELLFFAARYKAAFAECCQAADKAACLLPKLDELRDEGKASSAKQRLKCASLQKFGDRAFKAWAVARLSQKFPKAEFAEVSKLVTDLTKVHTECCHGDLLECADDRADLAKYMCENQDSISSKLKECCDKPLLEKSHCLAEVENDEMPADLPSLAADYVESKDVCKNYAEAKDVFLGMFLYEYARRHPDYSVMLLLRLAKAYEATLEKCCAAADPHECYAKVFDEFQPLVEEPQNLVKQNCELFEQLGEYKFQNALLVRYTKKVPQVSTPTLVEVSRNLGKVGAKCCKLPEAKRMPCAEDYLSVVLNRLCVLHEKTPVSEKVTKCCTESLVNRRPCFSALELDEAYVPKAFNAETFTFHADMCTLSEKEKQVKKQTALVELVKHKPKATKEQLKGVMDNFAAFVEKCCKADDKEACFAEEGPKFVAASQAALA
With B1, the Kd came out at 0.64 nM in experiment [1], 5.5 nM in experiment [2], 7.95 nM in experiment [3] and 0.76 nM in experiment [4]. The koff in experiment [1] came out at 0.000472 s⁻¹; in experiment [2], 0.00439 s⁻¹; in experiment [3] it was 9.48e-05 s⁻¹; in experiment [4], 0.000126 s⁻¹.

B2: rat serum albumin (natural protein)
chain: EAHKSEIAHRFKDLGEQHFKGLVLIAFSQYLQKCPYEEHIKLVQEVTDFAKTCVADENAENCDKSIHTLFGDKLCAIPKLRDNYGELADCCAKQEPERNECFLQHKDDNPNLPPFQRPEAEAMCTSFQENPTSFLGHYLHEVARRHPYFYAPELLYYAEKYNEVLTQCCTESDKAACLTPKLDAVKEKALVAAVRQRMKCSSMQRFGERAFKAWAVARMSQRFPNAEFAEITKLATDVTKINKECCHGDLLECADDRAELAKYMCENQATISSKLQACCDKPVLQKSQCLAEIEHDNIPADLPSIAADFVEDKEVCKNYAEAKDVFLGTFLYEYSRRHPDYSVSLLLRLAKKYEATLEKCCAEGDPPACYGTVLAEFQPLVEEPKNLVKTNCELYEKLGEYGFQNAVLVRYTQKAPQVSTPTLVEAARNLGRVGTKCCTLPEAQRLPCVEDYLSAILNRLCVLHEKTPVSEKVTKCCSGSLVERRPCFSALTVDETYVPKEFKAETFTFHSDICTLPDKEKQIKKQTALAELVKHKPKATEDQLKTVMGDFAQFVDKCCKAADKDNCFATEGPNLVARSKEALA
For the molecule B2, the Kd in experiment [5] is 8.29 nM; in experiment [6], 7.64 nM; in experiment [7] it was 130 nM; in experiment [1], 1.49 nM; in experiment [3], 18.7 nM; in experiment [4], 7.6 nM. Besides, the dissociation rate constant (koff) in experiment [1] worked out at 0.0035 s⁻¹; in experiment [3] it was 0.00054 s⁻¹; in experiment [4], 0.00075 s⁻¹.
